PMC9197078, “The small nonstructural protein NP1 of human bocavirus 1 directly interacts with Ku70 and RPA70 and facilitates viral DNA replication” (PLoS Pathogens, 2022)

B1: glutathione S-transferase (GST)-tagged HBoV1 NP1 (GST-NP1) (natural protein)
chain: MSSGNMKDKHRSYKRKGSPERGERKRHWQTTHHRSRSRSPIRHSGERGSGSYHQEHPISHLSSCTASKTSDQVMKTRESTSGKKDNRTNPYTVFSQHRASNPEAPGWCGFYWHSTRIARDGTNSIFNEMKQQFQQLQIDNKIGWDNTRELLFNQKKTLDQKYRNMFWHFRNNSDCERCNYWDDVYRRHLANVSSQTEADEITDEEMLSAAESMEADASN
notes: also called pGST-NP1; source: E. coli BL21/DE3 pLysS, purified
B2: MBP-Ku70-β-barrel^His (aa266-439) (domain or fragment, UniProt P12956 266-439, looked up)
chain: DIVISVGIYNLVQKALKPPPIKLYRETNEPVKTKTRTFNTSTGGLLLPSDTKRSQIYGSRQIILEKEETEELKRFDDPGLMLMGFKPLVLLKKHHYLRPSLFVYPEESLVIGSSTLFSALLIKCLEKEVAALCRYTPRRNIPPYFVALVPQEEELDDQKIQVTPPGFQLVFLPF
notes: also called MBP-β-barrel^His; Ku70 β-barrel domain; source: E. coli BL21/DE3 pLysS, purified

Experiments:
Assay in all cases: BLI; BLItz; His-tagged protein at different concentrations mounted on Ni-NTA biosensors, dipped into 4 μM GST-NP1 or control GST^Flag; Kinetic buffer 50 mM Tris-HCl pH 7.4, 150 mM NaCl
Conditions in all cases: both partners purified
[1] = target: T1, RPA70^His (UniProt P27694 1-616)
T1 construct: source: E. coli BL21/DE3 pLysS, purified

[2] = target: T2, RPA70-AB^His (aa181-422) (UniProt P27694 181-422)
T2 construct: also called middle AB domain; source: E. coli BL21/DE3 pLysS, purified

[3] = target: T3, hexahistidine (His)-tagged Ku70 (Ku70^His) (UniProt P12956 1-609)
T3 construct: also called full length Ku70; Ku70 monomer; source: E. coli BL21/DE3 pLysS, purified

[4] = target: B1

T3 sequence (P12956 whole entry): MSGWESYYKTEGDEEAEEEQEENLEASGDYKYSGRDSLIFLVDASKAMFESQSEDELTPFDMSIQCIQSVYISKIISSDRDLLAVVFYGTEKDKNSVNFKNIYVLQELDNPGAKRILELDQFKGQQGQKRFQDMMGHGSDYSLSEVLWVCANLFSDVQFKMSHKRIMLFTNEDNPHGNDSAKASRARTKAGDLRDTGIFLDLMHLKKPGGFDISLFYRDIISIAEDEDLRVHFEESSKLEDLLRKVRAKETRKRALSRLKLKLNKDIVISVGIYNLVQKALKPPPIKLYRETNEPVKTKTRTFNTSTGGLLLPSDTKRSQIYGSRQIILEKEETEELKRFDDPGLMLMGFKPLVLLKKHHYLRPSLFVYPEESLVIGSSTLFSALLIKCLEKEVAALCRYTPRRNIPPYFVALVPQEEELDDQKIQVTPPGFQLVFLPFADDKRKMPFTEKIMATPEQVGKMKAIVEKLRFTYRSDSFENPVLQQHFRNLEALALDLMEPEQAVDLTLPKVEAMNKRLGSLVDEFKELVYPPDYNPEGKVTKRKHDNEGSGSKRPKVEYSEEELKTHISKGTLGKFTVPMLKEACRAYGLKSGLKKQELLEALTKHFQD
T1 sequence (P27694 whole entry): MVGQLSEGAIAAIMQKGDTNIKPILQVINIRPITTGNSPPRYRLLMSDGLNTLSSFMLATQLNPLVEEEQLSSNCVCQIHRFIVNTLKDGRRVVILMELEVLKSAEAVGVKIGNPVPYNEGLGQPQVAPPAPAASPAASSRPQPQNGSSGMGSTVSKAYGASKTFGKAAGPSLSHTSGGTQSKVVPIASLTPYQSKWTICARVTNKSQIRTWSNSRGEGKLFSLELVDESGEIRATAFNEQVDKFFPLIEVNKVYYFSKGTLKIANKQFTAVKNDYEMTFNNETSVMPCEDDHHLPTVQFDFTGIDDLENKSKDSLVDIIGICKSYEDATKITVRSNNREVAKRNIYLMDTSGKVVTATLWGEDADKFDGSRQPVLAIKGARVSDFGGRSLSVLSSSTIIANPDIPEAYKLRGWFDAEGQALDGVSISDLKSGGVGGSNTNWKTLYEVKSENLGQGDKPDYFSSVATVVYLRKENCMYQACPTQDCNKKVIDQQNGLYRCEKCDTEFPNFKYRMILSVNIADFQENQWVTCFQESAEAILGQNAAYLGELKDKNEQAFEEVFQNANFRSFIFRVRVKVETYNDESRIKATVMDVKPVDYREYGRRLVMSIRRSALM
T2 sequence (P27694 181-422): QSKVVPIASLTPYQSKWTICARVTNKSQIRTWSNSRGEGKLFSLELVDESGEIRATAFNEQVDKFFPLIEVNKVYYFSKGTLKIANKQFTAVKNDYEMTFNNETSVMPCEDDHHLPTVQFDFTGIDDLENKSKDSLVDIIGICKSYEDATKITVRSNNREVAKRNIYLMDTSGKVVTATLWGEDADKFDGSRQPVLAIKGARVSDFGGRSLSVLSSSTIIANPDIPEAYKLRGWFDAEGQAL

Binder	Kd [1]	Kd [2]	Kd [3]	Kd [4]
B1	122 nM	526 nM	95 nM	
B2				722 nM
